The values that follow come from patent US20080293922A1.

The experiment addresses β-amyloid peptide Aβ1-40 (Homo sapiens (Human)) (UniProt P05067). Description: Dissociation of 125I-VEGF165 from resuspended Aβ1-40/VEGF co-aggregate, radioactivity in supernatant.

Sequence of Vascular endothelial growth factor VEGF165 (P15692 other isoform, or with tags, fused parts or gaps): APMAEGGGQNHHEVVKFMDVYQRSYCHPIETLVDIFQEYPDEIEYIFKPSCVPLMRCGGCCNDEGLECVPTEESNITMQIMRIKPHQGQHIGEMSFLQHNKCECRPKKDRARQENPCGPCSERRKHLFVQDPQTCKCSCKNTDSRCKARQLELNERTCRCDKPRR

As to “Vascular endothelial growth factor VEGF165 (from UniProt P15692 207-395) (ligand)”, the percent of VEGF released from the Aβ/VEGF complex after 3 days was less than 1.5%.
